Patent publication US20250019454A1

Assays:
[1] = biological target: ΔCRD1-TNFR2 protein (with CRD1 deletion), on CHO-S cells (human) (UniProt P20333); experiment: FACS on CHO-S cells with ΔCRD1-TNFR2, secondary antibody alone (background control)
[2] = biological target: ΔCRD2-TNFR2 protein (with CRD2 deletion), on CHO-S cells (human) (UniProt P20333); experiment: FACS on CHO-S cells with ΔCRD2-TNFR2, secondary antibody alone (background control)
[3] = biological target: ΔCRD4-TNFR2 protein (with CRD4 deletion), on CHO-S cells (human) (UniProt P20333); experiment: FACS on CHO-S cells with ΔCRD4-TNFR2, secondary antibody alone (background control)
Chain of ΔCRD4-TNFR2 protein (with CRD4 deletion), on CHO-S cells (human) (P20333 other isoform, or with tags, fused parts or gaps mutant): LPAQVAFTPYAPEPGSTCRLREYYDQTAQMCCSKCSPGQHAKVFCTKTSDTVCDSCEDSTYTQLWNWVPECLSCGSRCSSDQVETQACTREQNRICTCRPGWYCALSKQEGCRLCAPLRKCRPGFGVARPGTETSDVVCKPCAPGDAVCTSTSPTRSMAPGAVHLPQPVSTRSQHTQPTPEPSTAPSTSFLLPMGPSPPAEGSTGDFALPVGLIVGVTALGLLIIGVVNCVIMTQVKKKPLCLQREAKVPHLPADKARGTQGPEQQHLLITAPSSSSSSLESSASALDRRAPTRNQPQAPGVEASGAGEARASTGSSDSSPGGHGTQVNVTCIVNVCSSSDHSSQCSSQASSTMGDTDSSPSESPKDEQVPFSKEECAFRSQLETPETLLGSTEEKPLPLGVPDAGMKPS

[4] = biological target: ΔCRD3-TNFR2 protein (with CRD3 deletion), on CHO-S cells (human) (UniProt P20333); experiment: FACS on CHO-S cells with ΔCRD3-TNFR2, secondary antibody alone (background control)
Chain of ΔCRD3-TNFR2 protein (with CRD3 deletion), on CHO-S cells (human) (P20333 other isoform, or with tags, fused parts or gaps mutant): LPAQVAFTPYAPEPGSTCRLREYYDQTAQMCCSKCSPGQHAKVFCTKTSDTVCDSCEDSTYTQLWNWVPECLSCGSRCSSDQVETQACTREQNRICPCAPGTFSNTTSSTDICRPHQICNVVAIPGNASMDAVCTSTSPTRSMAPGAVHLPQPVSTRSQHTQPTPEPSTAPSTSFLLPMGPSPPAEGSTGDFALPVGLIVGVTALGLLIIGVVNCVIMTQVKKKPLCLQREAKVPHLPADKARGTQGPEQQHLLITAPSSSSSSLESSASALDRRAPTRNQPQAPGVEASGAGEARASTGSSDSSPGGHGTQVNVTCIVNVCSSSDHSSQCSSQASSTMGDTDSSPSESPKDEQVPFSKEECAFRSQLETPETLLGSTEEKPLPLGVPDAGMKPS

Chain of ΔCRD2-TNFR2 protein (with CRD2 deletion), on CHO-S cells (human) (P20333 other isoform, or with tags, fused parts or gaps mutant): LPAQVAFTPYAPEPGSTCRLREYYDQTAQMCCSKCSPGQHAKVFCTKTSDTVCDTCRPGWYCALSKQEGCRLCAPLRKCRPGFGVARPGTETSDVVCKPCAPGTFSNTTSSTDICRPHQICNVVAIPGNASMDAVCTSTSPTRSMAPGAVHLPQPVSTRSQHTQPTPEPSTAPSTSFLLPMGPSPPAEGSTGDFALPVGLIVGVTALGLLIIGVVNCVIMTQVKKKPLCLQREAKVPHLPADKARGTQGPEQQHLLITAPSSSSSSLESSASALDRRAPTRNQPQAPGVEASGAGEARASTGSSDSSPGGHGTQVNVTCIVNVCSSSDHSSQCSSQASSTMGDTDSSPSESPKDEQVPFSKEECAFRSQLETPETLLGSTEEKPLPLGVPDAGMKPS
Chain of ΔCRD1-TNFR2 protein (with CRD1 deletion), on CHO-S cells (human) (P20333 other isoform, or with tags, fused parts or gaps mutant): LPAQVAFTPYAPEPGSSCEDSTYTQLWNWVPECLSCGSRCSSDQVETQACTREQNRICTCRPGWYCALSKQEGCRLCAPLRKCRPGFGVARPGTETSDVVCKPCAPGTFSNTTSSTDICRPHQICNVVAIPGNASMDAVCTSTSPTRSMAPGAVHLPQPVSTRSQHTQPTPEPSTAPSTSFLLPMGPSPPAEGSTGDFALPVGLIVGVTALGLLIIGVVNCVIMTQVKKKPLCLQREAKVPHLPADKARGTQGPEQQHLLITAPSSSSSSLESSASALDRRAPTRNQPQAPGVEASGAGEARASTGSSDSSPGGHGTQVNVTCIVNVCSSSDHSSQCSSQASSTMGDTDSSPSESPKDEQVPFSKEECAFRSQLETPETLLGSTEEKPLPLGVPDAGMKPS

positive rate of binding (% of cells) [1]: 10.2%
positive rate of binding (% of cells) [2]: 7.33%
positive rate of binding (% of cells) [3]: 1.02%
positive rate of binding (% of cells) [4]: 0.62%
Substance: Secondary antibody (Alexa Fluor 647 AffiniPure F(ab')2 Fragment Goat Anti-Human IgG, Fcγ fragment specific, Jackson ImmunoResearch)
